System: C6orf203 mature form (Homo sapiens)
Experiment: EMSA
Conditions: 100 nM RNA, 0-2.56 uM protein; EMSA buffer, salt, pH and temperature not given (performed as previously described, ref 19); 100 nM fluorescein-labeled RNA; protein purified in 25 mM Tris-HCl …

Substance: mt-tRNAPro
- Kd: 290 nM
